Test results as given in article PMC8407082, “An Integrative Approach to Determine 3D Protein Structures Using Sparse Paramagnetic NMR Data and Physical Modeling” (Frontiers in Molecular Biosciences, 2021).

Molecular target: T1, calmodulin (UniProt P0DP23 1-149)
T1 construct: calmodulin, printed as 148 residues long; 13C/15N-labelled; The MELD model has 149 residues (with the extension C149); also called CaM; source: expressed in M9 minimal medium with 15NH4Cl and 13C6-glucose, purified as described previously (Liu and Vogel, 2012; Ishida et al., 2016)
Test: solution NMR (backbone chemical shifts, PRE, RDC) with MELD modelling of the complex's structure; 600 MHz; 1.2-fold excess of peptide mixed with CaM; RDCs in 2 mM bis-Tris pH 7.0, 300 mM KCl, 16 mg/ml Pf1 bacteriophage
Details: both partners purified

B1: smooth muscle myosin light chain kinase peptide (peptide)
peptide: PARRKWQKTGHAVRAIGRLSS
notes: proline left from the Asp-Pro acid cleavage site of the linker GGGGSSDP; Made unlabelled (LB) or 13C/15N-labelled (M9); The N-terminal proline is not seen in the NMR experiments and was left out of the MELD model; also called smMLCK peptide; smMLCKp; not shown: 6xHis, N-terminal, cleaved; KSI (D38A), N-terminal, cleaved
B1: binds.
